Assay results: the DeepSol protein solubility set

assay: soluble on expression in E. coli; label from the status in PepcDB or PDB records

| Sequence | soluble on expression in E. coli |
| --- | --- |
| SLDSKTTVNINIPSGSSVSAIASILKKNDVIKSEKAFQYYVKYKGASGFQAGFYHLNKGMDLDAIIQKLTSGATGYAFQITVTEGAQLTQIAAAIADETKYSKKQVIAKLDDETFINQLKKEFPDTVTNDVFNKNIKHPLEGYLFPATYPFNDPDTSLEDIIKAMIKQTNSYVETYKSEMKKNKVSVHKLLTMASLIEEEATEKADRHKIASVFYNRLKKKMPLQTDPTVLYAAGKHKDRVLYKDLEIDSPYNTYKNTGLTPGPIANAGMSSWEAALHPDKTDYLYFLAKSNGEVVFTKTLKEHNKAKEKYISSKNEK | soluble |
| SLEGWGRGLAMFYIRRVETPEGLVMVLVTDEDVMERAVYDEERGVRIIVSRSFYGGSLGTEADAIKTIEKADIIVLTGEKSVSIGVRMGLVNPDSVLEVKGIKQVQVFKFSY | soluble |
| SLEKKDTNSLKLLLIGNTGIGEYKSRAERKGLWYKLKRFLWTNEFDQTVSALAKWHAEEKADAVLGLGDFLGIPGPLSARDERFTKRWYDIFVKDAKLDIPWLMTLGEEEALVNPSASVRHHYTGEHPNWYMPNDAYTATFSFSTSMTMANGTIQHEAFNATVINVNTWNLFVGNPIANNMQSMMDRLMWLSDQLYTAVNQTTNWLIIMGHLPLVSTGPQGEQGRLQYVDDLYKNGQPRGPEAVLIQMLLSHYQVDLYVSAHDHFMEYVALEDLSKNTTTAFITSGAAVRLLDKDVGRGWIGRLRGALYPILCWSGRRILYAFHPG | soluble |
| SLFFFASQIVREENKLLDLLFNLFKDFNSFKLEVKRRDKNFAENSSNFKKYLAVKLFEKYQLKGVINNPEIIANIEILKEHFLVFTER | not soluble |
| SLGALGVIAFRRGYYYYVGSANSGVHRVKRHFSIKKKKRWHIDYISAKMEVVGAILSKEPECGLAQRFESFERIRGFGCSDCDCESHLFYSPTLNLEFLST | soluble |
| SLGRQVYNFNPGWRFFKGDIRGAEAVNFDDRSWEVVSTPHTVELMPAEGSGCRNYQGPAWYRKHFVVPTATKGQRVLLHFEAAMGKQVLYLNGKRVQEHLGGYLPFTLDLTANGVQAGDSCLLAVYTDNSNDKSYPPGKPQYTLDFAYHGGIYRDVWMIAKSPVAITDAIDSRTVGGGGVFVHFDKISEKSAQVYVETEIQNDNTRSESVTIETTLTDAEGNVIKRTSGKLSLNSGEKKSIRQQMEVRNPKLWSPDAPYLYRVQSRIKKGNRSIDGGTTRIGIRLAEFRGKEGFWLNGKPFGQLVGANRHQDFAYVGNALPNSQQWRDAKRLRDAGCTIIRVAHYPQDPSFMDACDELGLFVIVATPGWQYWNKDPKFGELVHQNTREMIRRDRNHPSVLMWEPILNETRYPLDFALKALEITKEEYPYPGRPIAAADVHSAGVKEHYDVVYGWPGDDEKEDKPEQCIFTREFGENVDDWYAHNNNNRASRSWGERPLLIQALSLAKSYDEMYRTTGQFIGGTQWHPFDHQRGYHPDPYWGGIYDAFRQKKYAYEMFRSQSPASLQHPLAECGPMIFLAHEMSQFSDKDVVVFSNCDSIRLSIYDGTKTWTKPVVHAKGHMPNAPVIFENVWDFWEARGYSYTQKNWQKVNMVAEGIIDGKVVCTQKKMPSRRSTKLRLYADTQKVNLVADGSDFIVVVAEVTDDSGNVRRLAKENIVFTVEGEGEIIGDARIGANPRAVEFGSAPLLIRSTRKAGKIKVKAHVQFEGTQAPTAAEMEFESVPAELPFCYDEKEG | not soluble |
| SLGSDADSAGSLIQPMQIPGIIMPGLRRLTIRDLLAQGRTSSNALEYVREEVFTNNADVVAEKALKPESDITFSKQTANVKTIAHWVQASRQVMDDAPMLQSYINNRLMYGLALKEEGQLLNGDGTGDNLEGLNKVATAYDTSLNATGDTRADIIAHAIYQVTESEFSASGIVLNPRDWHNIALLKDNEGRYIFGGPQAFTSNIMWGLPVVPTKAQAAGTFTVGGFDMASQVWDRMDATVEVSREDRDNFVKNMLTILCEERLALAHYRPTAIIKGTFSSGS | soluble |
| SLIDNPHAQDCWPNQGHMDVQGLTVKYTEAGRSVLQDLSFTVEGGQSVGVLGRTGSGKSTLLSALLRLASTDGEISIDGVSWNSVTLETWRKAFGVVPQKIFILTGTFRMNLDPHARYSDEELWRVAEEVGLKSVIEQFPDKLDFQLEDGGYVLSNGHKQLMCLARSILSKARILLLDEPSAFLDPITLQVLRKTLKQSFSNCTVILSEHRVEPLLECDSFLMIEGSSMKRYDSIQKLLNETSDLKQAMSAAE | soluble |
| SLIENVDAQADSSWPHRGQIEVRNLTVKYTEAGHAVLKNLSFSAEGRQRVGILGRTGSGKSSLFNALLKLVYTDGEISIDGVNWNKMPLEKWRKAFGVVPQKVFIFTGPLRMNLDPYGCHSDEELWRVAEEVGLKTVIEQFPDKLDFQLEYGGYVLSNGHKQLICLARSILSGARILLLDEPSAHLDPVTIKVLKKTLRQSFSTCTILLSEHKVEPLLECDSFLMMDKGQVKTYDSIQKLLNETSDLKQAISPAE | not soluble |
| SLKEFELKGINHLALVCRDFQETIDFYTITLGLKLIKNIDLPSGGKHFFIDIGNNNTLAFFWSTKAPESVPGISSVRPEAFLTGDIITAHGSMNHVAFHVPLEKLEEYKEKLVSKGVQTTPVLHHTDVPMSSFYFFDPNGILLEFAANLQSLDTLPAELKEKEAIFLKEG | soluble |
| SLKNRRVGKKLLMTGGGRCNVTNNRPAEEIISFIPGNGKFLYSAFSQFDNYDIMNFFESNGIHLKEEDHGRMFPVTDKSKSIVDALFNRINELGVTVFTKTQVTKLLRKDDQIIGVETELEKIYAPCVVLTTGGRTYPSTGATGDGYKLAKKMGHTISPLYPTESPIISEEPFILDKTLQGLSLQDVNLTVLNQKGKPLVNHQMDMLFTHFGISGPAALRCSSFINQELTRNGNQPVTVALDVFPTKSFEEVPAKQLTEKQRLSFVELLKDFQFTVTKTLPLEKSFVTGGGISLKEVTPKTMESKLVNGLFFAGELLDINGYTGGYNVTAAFVTGHVAGSHAAEIAEYTYLPIEEV | soluble |
| SLKSFPHGEKAPFPLTLIHINDLHARFDETNQKSSTCTNSKECIAGIARVYHTIKQLKSEYKTKNPLYLNAGDNFQGTLWYNLLRWNVTAYFIKELPPDAMTLGNHEFDHSPKGLAPYLAELEKMKIPTVVANLEKNGEPALKDSKIAPQIVLKVGNRKVGVIGALYDKTHLVAQTGMVTLTNSIEAVRKEAQELKKKNVNIIVVLSHCGLDGDKQLAEEAGDLIDVIVGAHSHSLLLNKDAKVPYDTKYDTIEGDYPLVVKKSNNHTVLITQARSFGKYVGRLTVNFDCEGEVQSWEGYPIYMNNSVKQDEEVLRELEPWRAEVKRLGTQVIGTTEVFLDRESCRWCECTLGDLIADAYADQYTNSTVQPVAFVQAGNFRNPIEKGDITNGLAIEAAPYGSSVDMIKLSGADLWSAIDHSFTLDDEFRYNTAQVSGMTVVADLSKKPYERVQSIDIVGANGAKTALKKDQIYYVAVPSYLADGKDGFAMLKKGTNRVTGPLDSDVLIEYVRKRQTIAKTMFQEKRVVIENHTNGTCSWDLDSQRYKPK | not soluble |
| SLPHIITRKVISVEQNWLQQLANAISDPLQLLQQLEIDPSPWQDGFEARKLFAQRVPQSFVDRMQKGNPADPLLRQVLPLSAEFEIHPGYSHDPLDEQNNTVPGLLHKYKNRCLLIVKGGCAINCRYCFRRHFPYEDNKGGKSAWQQSLDYIAQNPQLNEVIFSGGDPLMAKDHEIAWLMERIAAIPHIKRLRIHSRLPVVIPARITDELVELFAQTRLQVLLVTHINHANEINLELKQQMARLRAVNVTLLNQGVLLKGVNDTVDAQVSLSETLFDAGILPYYLHVLDKVQGAAHFYVSDDKARQIMAGLIEQVSGYLVPKLTREIGGRPSKTPLDLHLE | not soluble |
| SLPVRESLQKQVKILIGLGNLGFGGYRGLYTRFTNPNGFLEPASSDLLLINERRNLSVIGAVSRTFSVPSVSGPAFQVCGYHIDLLLSDPCKSMASLGSKSLFVDRHSASLVSKRFTGGMVSGDGPNRGRISMRLRGKDHNEKSTICAYFAYRGAKRWIYLNQQRRGMGFRGLHSSLSNRLSAGNAPDVSLDNSVTDEQVRDSSDSVAAKLCTKPLKLVSGSCYLPHPDKEATGGEDAHFICAEEQALGVADGVGGWAELGIDAGYYSRELMSNSVNAIQDEPKGSIDPARVLEKAHTCTKSQGSSTACIIALTNQGLHAINLGDSGFMVVREGHTVFRSPVQQHDFNFTYQLESGRNGDLPSSGQVFTVAVAPGDVIIAGTDGLFDNLYNNEITAIVVHAVRTNIDPQVTAQKIAALARQRAQDKNRQTPFSTAAQDAGFRYYGGKLDDITVVVSYVAASKEEGKH | soluble |
| SLRAERLTSRVKALFSVLNYERARRPGLLGASVLGLDDIHRAWRTFVLRVRAQDPPPELYFVKVDVTGAYDTIPQDRLTEVIASIIKPQNTYCVRRYAVVQKAAHGHVRKAFKSHVSTLTDLQPYMRQFVAHLQETSPLRDAVVIEQSSSLNEASSGLFDVFLRFMCHHAVRIRGKSYVQCQGIPQGSILSTLLCSLCYGDMENKLFAGIRRDGLLLRLVDDFLLVTPHLTHAKTFLRTLVRGVPEYGCVVNLRKTVVNFPVEDEALGGTAFVQMPAHGLFPWCGLLLDTRTLEVQSDYSSYARTSIRASLTFNRGFKAGRNMRRKLFGVLRLKCHSLFLDLQVNSLQTVCTNIYKILLLQAYRFHACVLQLPFHQQVWKNPTFFLRVISDTASLCYSILKAKNAGMSLGAKGAAGPLPSEAVQWLCHQAFLLKLTRHRVTYVPLLGSLRTAQTQLSRKLPGTTLTALEAAANPALPSDFKTILDEG | not soluble |
| SLRQIRTVIQYQTVRYDILPLSPVSRNRLAQVKRKILVLDLDETLIHSHHDGVLRPTVRPGTPPDFILKVVIDKHPVRFFVHKRPHVDFFLEVVSQWYELVVFTASMEIYGSAVADKLDNSRSILKRRYYRQHCTLELGSYIKDLSVVHSDLSSIVILDNSPGAYRSHPDNAIPIKSWFSDPSDTALLNLLPMLDALRFTADVRSVLSRNLHQHRLW | soluble |
| SLSELMGKRVLIIDDNLTSQKILINQAQSWGMFTCAVDSGEKALEWLKRGITFDVAILDMNLPDMNGLELVREIRKQPNCTRLPLIMLSAITETEKTFQSSEEEFVAVLCKPVQRSQLYNVLMEIFSEIPRAPIRVTEG | soluble |
| SLSHGKGTDMLPEIAAAVGFLSSLLRTRGCVSEQRLKVFSGALQEALTEHYKHHWFPEKPSKGSGYRCIRINHKMDPIISRVASQIGLSQPQLHQLLPSELTLWVDPYEVSYRIGEDGSICVLYEEAPLAASCGEG | soluble |
| SLSHRTDGSLLFPLSLVHINDIHAHWEEIDTASVTCDPKRDGAAEQCLGGYARTVTIVRQLLQERPNPVYLNIGDNFQGTLWYNIHRWNATAFFLNLLPADAVTVGNHEFDDGIAGVVPFLEAIQSPVLLVNVDNSKEPSFSKFRPSMVLERAGRKIGLIGVILRTTYNMADTGALVFEDEAETVRLEADRLAAEGVDIVVVLSHCGLDVDHIIAANAGPNVDIIVGGHSHSFLYSGQNDKIPMTPASEYPTVVNQPDGHRVLIVQASAYTKLVGDIVLYFDDQGIVQHWEGNPIYLSNDIVPDAEVLEAIAPWKVAIDAVGERTIGATAVDLLKPPCNFGECVLGNLIADSMVEAFVPMAEEGSWTYASIAAIAVGRIRQSLVPGDISFKHLIEVLPFENKLVCLELRGFQLVGLLEHGAELSWDEHRFNAKNLMHVSGLRVVYNVTNPIGHRVLSVEALCQDCSMPSYAPVEMFKMYRVVTVSYLAEGGDGFEIFPRYGRNRVVAPMDDVQAFEEYVKPRSPVAPVLEERIQILN | not soluble |
| SLSIELDLQLAVENEHGLPSEAEFALWLTRTITPFQAQAEVTVRIVDEAESHALNLNYRGKDKPTNVLSFPFEAPSGMEMDLLGDLVICRQVVEREAIEQNKPLQAHWAHMVVHGSLHLLGYDHIEDDEAEEMESLETEIMQEMGFTDPYLAEKE | not soluble |
